Laboratory results published in IntAct's records for PubMed 21505799.

B1: E3 ubiquitin-protein ligase NHLRC1 (Homo sapiens), Q6VVB1 (parent)
chain: MAAEASESGPALHELMREAEISLLECKVCFEKFGHRQQRRPRNLSCGHVVCLACVAALAHPRTLALECPFCRRACRGCDTSDCLPVLHLIELLGSALRQSPAAHRAAPSAPGALTCHHTFGGWGTLVNPTGLALCPKTGRVVVVHDGRRRVKIFDSGGGCAHQFGEKGDAAQDIRYPVDVTITNDCHVVVTDAGDRSIKVFDFFGQIKLVIGGQFSLPWGVETTPQNGIVVTDAEAGSLHLLDVDFAEGVLRRTERLQAHLCNPRGVAVSWLTGAIAVLEHPLALGTGVCSTRVKVFSSSMQLVGQVDTFGLSLYFPSKITASAVTFDHQGNVIVADTSGPAILCLGKPEEFPVPKPMVTHGLSHPVALTFTKENSLLVLDTASHSIKVYKVDWG
partner: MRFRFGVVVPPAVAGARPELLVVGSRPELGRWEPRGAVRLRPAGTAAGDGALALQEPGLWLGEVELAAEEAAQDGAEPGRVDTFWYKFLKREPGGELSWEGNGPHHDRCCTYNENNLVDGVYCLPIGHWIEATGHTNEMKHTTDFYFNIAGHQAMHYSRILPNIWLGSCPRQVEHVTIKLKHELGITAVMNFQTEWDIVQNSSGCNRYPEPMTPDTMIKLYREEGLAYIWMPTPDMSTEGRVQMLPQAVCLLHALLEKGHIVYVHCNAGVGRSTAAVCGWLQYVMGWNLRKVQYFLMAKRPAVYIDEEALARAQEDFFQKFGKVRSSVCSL

Variants of: B1
Details: with epm2a_human EPM2A

| effect of a mutation on the interaction | Variant |
| --- | --- |
| disrupting interaction | C46Y |
| decreasing interaction | P69A |
| disrupting interaction | L261P |
| decreasing interaction | D146N |
